Consider three molecules from patent publication US20230212319A1, “NOVEL ANTIGEN BINDING DOMAINS AND SYNTHETIC ANTIGEN RECEPTORS INCORPORATING THE SAME” (University of Southern California, priority 2020, published 2023).

Assay [1] concerns KMH2 (PSMA-low) cells. In words: JNG NFAT-GFP induction on co-culture with KMH2.
For assay [2], the system named is Huh-7 cells. In words: JNG NFAT-GFP induction on co-culture with Huh-7.
The subject of assay [3] is RAJI cells. In words: JNG assay, co-culture with RAJI cells. In kind it is cell-based. The conditions noted are these: JNG cells expressing construct, co-culture with Raji. Summed up:
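Read-out is NFAT-driven GFP measured by flow cytometry after ~4–18 h co-culture of SAR-expressing JNG cells with target cells (E:T about 1:2). SARs were introduced by lentiviral spinfection and selected with puromycin or blasticidin when possible; scores (+/- to 5+ ≈ 5–50% GFP+) are relative to parental JNG cells.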

Assay [4] has as its system HEL 92.1.7 cells. In words: JNG assay, co-culture with HEL 92.1.7 cells. In kind it is cell-based. The following applies: co-culture with HEL 92.1.7. On the procedure: Cellular supernatant is collected and assayed for the induction of cytokines (e.g., IL2).
JNG (Jurkat cells expressing EGFP under an NFAT promoter) were infected with lentiviral vectors encoding different single chain and multi-chain SARs by spinfection in the presence of 8 µg/ml of Polybrene® (Sigma, Catalog no. H9268). The Jurkat-NFAT-GFP cells are engineered in such a way that the IL-2 promoter, which carries NFAT binding sites, is cloned upstream of the GFP gene. These cells have been used to study signaling via TCR and CAR. The different SARs were stably expressed in Jurkat NFAT-GFP cells by lentiviral mediated gene transfer, followed by selection with puromycin or blasticidin. No drug selection was used in case the construct lacked an antibiotic resistance gene. The SAR-expressing Jurkat-NFAT-GFP cells were cocultured with the target cells at E:T ratio of approximately 1:2 for approximately 4 hours to 18 hours. When the interaction between SIRs and their target antigen results in activation of the NFAT pathway, GFP expression is induced. […] GFP expression was monitored by FACS analysis. The Jurkat-NFAT-GFP (parental) cells were used as control. The structure of different constructs can be determined based on their names. […] The sequence of the other constructs in the table can be similarly determined from their names and by referring to the different Tables of this disclosure that provide the names and SEQ ID NO of the different modules. Alternatively, the composition and modular architecture of the different SAR constructs can be determined from their sequences by bioinformatics tools, including using nucleic acid and amino acids homology searches. […] The signs +/-, +, 2+ etc. after the name of the cell lines indicate the relative degree of positivity on the Jurkat-NFAT-GFP assay as measured by the % GFP positive cells after culture of the SAR expressing Jurkat-NFAT-GFP cells with that cell line above the % GFP cells observed in parental Jurkat NFAT-GFP cells serving as controls. […]

B1: 21892 (protein)
chain: MALPVTALLLPLALLLHAARPDIQMTQSPSSLSASVGDRVTITCKASQDVGTAVDWYQQKPGKAPKLLIYWASTRHTGVPSRFSGSGSGTDFTLTISSLQPEDFATYYCQQYNSYPLTFGQGTKVEIKRLEDLKNVFPPEVAVFEPSEAEISHTQKATLVCLATGFYPDHVELSWWVNGKEVHSGVCTDPQPLKEQPALNDSRYCLSSRLRVSATFWQNPRNHFRCQVQFYGLSENDEWTQDRAKPVTQIVSAEAWGRADCGFTSESYQQGVLSATILYEILLGKATLYAVLVSALVLMAMVKRKDSRGRAKRSGSGATNFSLLKQAGDVEENPGPTSMDWIWRILFLVGAATGAHSFEVQLVESGGGLVQPGGSLRLSCAASGYTFTEYTIHWVRQAPGKGLEWVANINPNNGGTTYNQKFEDRFTISRDNSKNTLYLQMNSLRAEDTAVYYCARGWNFDYWGQGTLVTVSSTRIQNPDPAVYQLRDSKSSDKSVCLFTDFDSQTNVSQSKDSDVYITDKCVLDMRSMDFKSNSAVAWSNKSDFACANAFNNSIIPEDTFFPSPESSCDVKLVEKSFETDTNLNFQNLSVIGFRILLLKVAGFNLLMTLRLWSSRAKRSGSGVKQTLNFDLLKLAGDVESNPGPSRGHMTEYKPTVRLATRDDVPRAVRTLAAAFADYPATRHTVDPDRHIERVTELQELFLTRVGLDIGKVWVADDGAAVAVWTTPESVEAGAVFAEIGPRMAELSGSRLAAQQQMEGLLAPHRPKEPAWFLATVGVSPDHQGKGLGSAVVLPGVEAAERAGVPAFLETSAPRNLPFYERLGFTVTADVEVPEGPRTWCMTRKPGA
For B1, in assay [1], the “NFAT-GFP ASSAY: KMH2” value is listed as “negligible GFP induction”. Besides, in assay [2], the “NFAT-GFP ASSAY: Huh-7” value was “negligible GFP induction”.

B2: 21887 (protein)
chain: MALPVTALLLPLALLLHAARPDIQMTQSPSSLSASVGDRVTITCKASQDVGTAVDWYQQKPGKAPKLLIYWASTRHTGVPSRFSGSGSGTDFTLTISSLQPEDFATYYCQQYNSYPLTFGQGTKVEIKRLEPSEAEISHTQKATLVCLATGFYPDHVELSWWVNGKEVHSGVCTDPQPLKEQPALNDSRYCLSSRLRVSATFWQNPRNHFRCQVQFYGLSENDEWTQDRAKPVTQIVSAEAWGRADCGFTSESYQQGVLSATILYEILLGKATLYAVLVSALVLMAMVKRKDSRGRAKRSGSGATNFSLLKQAGDVEENPGPTSMDWIWRILFLVGAATGAHSFEVQLVESGGGLVQPGGSLRLSCAASGYTFTEYTIHWVRQAPGKGLEWVANINPNNGGTTYNQKFEDRFTISRDNSKNTLYLQMNSLRAEDTAVYYCARGWNFDYWGQGTLVTVSSTRDKSVCLFTDFDSQTNVSQSKDSDVYITDKCVLDMRSMDFKSNSAVAWSNKSDFACANAFNNSIIPEDTFFPSPESSCDVKLVEKSFETDTNLNFQNLSVIGFRILLLKVAGFNLLMTLRLWSSRAKRSGSGVKQTLNFDLLKLAGDVESNPGPSRGHMTEYKPTVRLATRDDVPRAVRTLAAAFADYPATRHTVDPDRHIERVTELQELFLTRVGLDIGKVWVADDGAAVAVWTTPESVEAGAVFAEIGPRMAELSGSRLAAQQQMEGLLAPHRPKEPAWFLATVGVSPDHQGKGLGSAVVLPGVEAAERAGVPAFLETSAPRNLPFYERLGFTVTADVEVPEGPRTWCMTRKPGA
In the case of B2, the “NFAT-GFP ASSAY: KMH2” value in assay [1] is reported as “negligible GFP induction”. Moreover, the “NFAT-GFP ASSAY: Huh-7” value in assay [2] was “negligible GFP induction”.

B3: 22148 (protein)
chain: MALPVTALLLPLALLLHAARPACEVQLLESGGGLIQPGGSLRLSCAASGFTFSSHAMTWVRQAPGKGLEWVSAISGSGDYTHYADSVKGRFTISRDNSKNTVYLQMNSLRAEDSAVYYCAKDEDGGSLLGHRGQGTLVTVSSGTGGGGSGGGGSGGGGSEFDVVMTQSPSSLSASVGDRVTITCMASEDIYIRLAWYQQKPGNAPKLLIYAATSLETGVPSRFSGSGSGTDFTLTISSLQPEDFATYYCQQYWSSPWTFGGGTKVEIKLEGQPKANPTVTLFPPSSEELQANKATLVCLISDFYPGAVTVAWKADGSPVKAGVETTKPSKQSNNKYAASSYLSLTPEQWKSHRSYSCQVTHEGSTVEKTVAPTECSPIKTDVITMDPKDNCSKDANDTLLLQLTNTSAYYMYLLLLLKSVVYFAIITCCLLRRTAFCCNGEKSRAKRSGSGATNFSLLKQAGDVEENPGPTSATMDWIWRILFLVGAATGAHSGPQVQLQESGGGLAQAGGSLRLSCAASGRTFSMGWFRQAPGKEREFVAAITYSGGSPYYASSVRGRFTISRDNAKNTVYLQMNSLKPEDTAVYYCAANPTYGSDWNAENWGQGTQVTVSSGSGGGGSGGGGSGGGGSFEQVQLQESGPGLVKPSQTLSLTCTVSGYSITSDYTWNWIRQPPGNGLEWIGYITYSGSTSYNPSLKSRVLISVDTSKNQVSLKLSSVTAADTAVYYCARLGRRYTMDYWGQGTTVTVSSTRASTKGPSVFPLAPSSKSTSGGTAALGCLVKDYFPEPVTVSWNSGALTSGVHTFPAVLQSSGLYSLSSVVTVPSSSLGTQTYICNVNHKPSNTKVDKRVEPKSCEVKTDSTDHVKPKETENTKQPSKSCHKPKAIVHTEKVNMMSLTVLGLRMLFAKTVAVNFLLTAKLFFLRAKRSGSGVKQTLNFDLLKLAGDVESNPGPSRGHMTEYKPTVRLATRDDVPRAVRTLAAAFADYPATRHTVDPDRHIERVTELQELFLTRVGLDIGKVWVADDGAAVAVWTTPESVEAGAVFAEIGPRMAELSGSRLAAQQQMEGLLAPHRPKEPAWFLATVGVSPDHQGKGLGSAVVLPGVEAAERAGVPAFLETSAPRNLPFYERLGFTVTADVEVPEGPRTWCMTRKPGA
Take B3: the “NFAT-GFP ASSAY: Raji” value in assay [3] was 3+ (refer to approximately 5%, 10%, 20%, 30%, 40% and 50% GFP positive cells). The “NFAT-GFP ASSAY: HEL 92.1.7” value in assay [4] was “+ (refer to approximately 5%, 10%, 20%, 30%, 40% and 50% GFP positive cells)”.
